Results published in the supplement of paper PMC7877785.
± gives the uncertainty stated by the source.

Experiment: self-splicing fitness, log relative to wild type (ln ratio); higher = more splicing; Tetrahymena group I intron in knt gene, E. coli kanamycin selection, DiMSum; sequences stand for … in CUCUCU…GGAGGGAAAAGUUAUCAGGCAUGCACCUGGUAGCUAGUCUUUAAACCAAUAGAUUGCAUCGGUUUAAAAGGCAAGACCGUCAAAUUGCGGGAAAGGGGUCAACAGCCGUUCAGUACCAAGUCUCAGGGGAAACUUUGAGAUGGCCUUGCAAAGGGUAUGGUAAUAAGCUGACGGACAUGGUCCUAACCACGCAGCCAAGUCCUAAGUCAACAGAUCUUCUGUUGAUAUGGAUGCAGUUCACAGACUAAAUGUCGGUCGGGGAAGAUGUAUUCUUCUCAUAAGAUAUAGUCGGACCUCUCCUUAAUGGGAGCUAGCGGAUGAAGUGAUGCAACACUGGAGCCGCUGGGAACUAAUUUGUAUGCGAAAGUAUAUUGAUUAGUUUUGGAGUACUCGUGGUCG
Method in brief: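 A randomised library covering all eight P1ex-region intron nucleotides was built with the intron in the knt kanamycin-resistance gene on pET-22b(+) and held in E. coli BL21(DE3). Cells were grown overnight at 37°C or 30°C on LB agar, with or without 25 μg/mL kanamycin, plus 100 μg/mL carbenicillin, 50 μM IPTG and 0.2% rhamnose, and pooled colonies were amplicon-sequenced on an Illumina HiSeq 2500. DiMSum fitness is the error-weighted combination of wild-type-normalised replicate fold changes, kanamycin versus none.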

| Sequence | self-splicing fitness (ln) (30 °C) | self-splicing fitness (ln) (37 °C) |
| --- | --- | --- |
| GAGAAGCAAUAUUACGACCA | -1.12 ± 0.18 | 0.744 ± 0.3 |
| GAGAAGCAAUAUUACGACUG | -0.535 ± 0.062 | -0.0404 ± 0.073 |
| GAGAAGCAAUAUUACGAGAU | -4.47 ± 0.42 | -2.1 ± 0.22 |
| GAGAAGCAAUAUUACGAGUA | -2.04 ± 0.2 | -1.73 ± 0.12 |
| GAGAAGCAAUAUUACGAUAA | -2.02 ± 0.14 | -0.42 ± 0.15 |
| GAGAAGCAAUAUUACGCAGC | -3.2 ± 0.38 | -1.48 ± 0.26 |
| GAGAAGCAAUAUUACGCAUU | -2.53 ± 0.12 | -2.08 ± 0.17 |
| GAGAAGCAAUAUUACGCCCU | -0.493 ± 0.16 | 0.146 ± 0.18 |
| GAGAAGCAAUAUUACGCCGG | -2.05 ± 0.44 | 0.0344 ± 0.4 |
| GAGAAGCAAUAUUACGCGGG | -2.86 ± 0.14 | -1.88 ± 0.14 |
| GAGAAGCAAUAUUACGCUGC | -2.78 ± 0.46 | -2.26 ± 0.49 |
| GAGAAGCAAUAUUACGGAAU | -3.69 ± 0.25 | -1.55 ± 0.2 |
| GAGAAGCAAUAUUACGGAGG |  | -2.47 ± 0.21 |
| GAGAAGCAAUAUUACGGCGG | -1.9 ± 0.12 | -1.25 ± 0.15 |
| GAGAAGCAAUAUUACGGUAA | -1.64 ± 0.2 | -1.57 ± 0.18 |
| GAGAAGCAAUAUUACGGUGU | -3.57 ± 0.15 | -1.58 ± 0.099 |
| GAGAAGCAAUAUUACGUACC | -1.18 ± 0.23 | -0.414 ± 0.35 |
| GAGAAGCAAUAUUACGUGAG | -1.32 ± 0.058 | -1.57 ± 0.1 |
| GAGAAGCAAUAUUACGUGCC | -0.556 ± 0.11 | -0.064 ± 0.11 |
| GAGAAGCAAUAUUACGUGGA | -2.64 ± 0.17 | -1.81 ± 0.14 |
| GAGAAGCAAUAUUACGUGUA | -2.8 ± 0.15 | -1.41 ± 0.13 |
| GAGAAGCAAUAUUACGUUCG | -1.38 ± 0.072 | -0.765 ± 0.095 |
| GAGAAGCAAUAUUACGUUUU | -2.39 ± 0.14 | -1.96 ± 0.17 |
| GAGCAGCAAUAUUACGAAGG |  | -2.79 ± 0.34 |

| Sequence | self-splicing fitness (ln) (30 °C) | self-splicing fitness (ln) (37 °C) |
| --- | --- | --- |
| GAGCAGCAAUAUUACGACAC | -0.81 ± 0.23 | -0.627 ± 0.21 |
| GAGCAGCAAUAUUACGACUG | -1.75 ± 0.11 | -2.01 ± 0.18 |
| GAGCAGCAAUAUUACGAGAU | -3.68 ± 0.18 | -2.64 ± 0.17 |
| GAGCAGCAAUAUUACGAUAG | -3.7 ± 0.29 | -3.14 ± 0.24 |
| GAGCAGCAAUAUUACGAUCG | -2.76 ± 0.17 | -2.48 ± 0.26 |
| GAGCAGCAAUAUUACGAUUC | -0.868 ± 0.093 | -0.29 ± 0.14 |
| GAGCAGCAAUAUUACGCAGA | -3.22 ± 0.21 | -0.954 ± 0.1 |
| GAGCAGCAAUAUUACGCAGG | -2.08 ± 0.13 | -2.55 ± 0.19 |
| GAGCAGCAAUAUUACGCGCU | -3.19 ± 0.38 | -1.9 ± 0.36 |
| GAGCAGCAAUAUUACGCUUG | -2.4 ± 0.13 | -0.209 ± 0.12 |
| GAGCAGCAAUAUUACGGAUG | -3.85 ± 0.25 | -1.73 ± 0.15 |
| GAGCAGCAAUAUUACGGGAG | -3.68 ± 0.32 | -2.9 ± 0.35 |
| GAGCAGCAAUAUUACGGGGU | -2.96 ± 0.16 | -3.18 ± 0.17 |
| GAGCAGCAAUAUUACGGGUG | -4.47 ± 0.22 | -2.17 ± 0.15 |
| GAGCAGCAAUAUUACGGUCG | -2 ± 0.17 | -2.28 ± 0.17 |
| GAGCAGCAAUAUUACGUAGA | -2.24 ± 0.1 | -1.03 ± 0.13 |
| GAGCAGCAAUAUUACGUAGC | -0.99 ± 0.11 | -1.65 ± 0.13 |
| GAGCAGCAAUAUUACGUCGC | -2.31 ± 0.14 | -1.47 ± 0.15 |
| GAGCAGCAAUAUUACGUUCA | -1.38 ± 0.13 | -0.931 ± 0.13 |
| GAGCAGCAAUAUUACGUUCU |  | -2.48 ± 0.26 |
| GAGCAGCAAUAUUACGUUUG | -2.84 ± 0.11 | -1.31 ± 0.11 |
| GAGGAGCAAUAUUACGAACA | -2.69 ± 0.23 | -2.07 ± 0.16 |
| GAGGAGCAAUAUUACGACGU | -1.37 ± 0.13 | -0.0936 ± 0.15 |
| GAGGAGCAAUAUUACGAGCG | -3.24 ± 0.35 | -1.55 ± 0.28 |
